Measurements taken from article PMC3937211, “Serine Carboxypeptidase SCPEP1 and Cathepsin A Play Complementary Roles in Regulation of Vasoconstriction via Inactivation of Endothelin-1” (PLoS Genetics, 2014).

Target: T1, Scpep1 (Mus musculus, UniProt Q920A5)
T1 construct: Scpep1 has a cleavable signal peptide, N-linked glycans, the Ser-Asp-His catalytic triad and is proteolytically processed from a 55 kDa precursor; made in house; host or cells: HT1080 cells (stably transfected), protein purified from the culture medium
T1 sequence (Q920A5 29-452): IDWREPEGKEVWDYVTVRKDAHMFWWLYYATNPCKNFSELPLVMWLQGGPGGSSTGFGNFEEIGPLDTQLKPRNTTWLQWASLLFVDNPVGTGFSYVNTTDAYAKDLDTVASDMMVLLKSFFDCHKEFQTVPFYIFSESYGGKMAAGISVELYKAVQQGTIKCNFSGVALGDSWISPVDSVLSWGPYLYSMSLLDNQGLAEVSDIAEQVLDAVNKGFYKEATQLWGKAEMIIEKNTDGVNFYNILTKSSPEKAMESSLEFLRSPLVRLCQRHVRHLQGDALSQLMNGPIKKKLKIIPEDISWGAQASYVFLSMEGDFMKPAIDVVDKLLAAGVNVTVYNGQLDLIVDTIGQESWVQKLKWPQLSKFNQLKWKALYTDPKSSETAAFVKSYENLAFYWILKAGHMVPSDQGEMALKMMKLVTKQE
Test: Carboxypeptidase activity of purified recombinant Scpep1-His6 against ET-1
Format: biochemical
Conditions: pH 6.5 and 7.5, 50 µM ET-1
Excerpt: Figure 1 Scpep1 has carboxypeptidase activity against ET-1. A. Carboxypeptidase activity against ET-1 in homogenates of cultured AVSMC from WT, Scpep1 ^−/−, CathA^S190A and Scpep1 ^−/− /CathA^S190A mice as well as from the cells of Scpep1 ^−/− /CathA^S190A mice transiently transfected with pCMV-GFP and pCMV-Scpep1 plasmids. AVSMC after the passage 3 were transfected or not with Scpep1-RGS-His-Tag and pEGFP-C1 plasmids. Forty-eight hours after transfection confluent cells were harvested, homogenized and tested for carboxypeptidase activity using 50 µM ET-1 as a substrate. Data are expressed as means (±S.D.) of 3 independent experiments performed with different cell cultures. * p<0.05 and ** p<0.01 in two-tailed unpaired t-test. B. Carboxypeptidase activity against ET-1 in homogenates of cultured AVSMC from WT mice transfected with Scpep1 and CathA shRNA. […] The amino acid analysis of the reaction mixture determined that Scpep1 cleaves the C-terminal amino acid (Trp21) from ET-1 (not shown). […]
HT1080 cells stably expressing Scpep1-His6 [19] were cultured in DMEM with 0.05% FCS. […] Purity of Scpep1-His6 was monitored by silver staining and Western blotting.
Carboxypeptidase activity in cultured AVSMC was measured against 50 µM ET-1 as previously described using the method measuring the liberation rate of the C-terminal amino acid of the peptide. […]

carboxypeptidase activity against ET-1 compared with pH 5.5: Lower activity
Substance: endothelin-1 [ET-1]
